Our source for the stoichiometry N values is article PMC3184995.

Experiment [1] concerns the target Ac-SLP-1, saposin-like protein from the dog hookworm Ancylostoma caninum (Ancylostoma caninum). The experiment can be described thus: native gel or EMSA; native gel of purified Ac-SLP-1; migrates at 20 kDa under native conditions, at smaller sizes with SDS. For orientation: A gel shift assay detects complexes by their altered migration in electrophoresis.
For experiment [2] the target is unchanged. The experiment can be described thus: SEC-MALS; Superose-12 column; samples injected at 5–10 mg mL^−1; 100 mM NaCl, 20 mM HEPES (pH 7.5) or 100 mM Na-citrate (pH 5.0); same result at both pH.

As a reminder, the stoichiometry N is a count of units in the complex or per binding partner. Regarding “Ac-SLP-1, saposin-like protein from the dog hookworm Ancylostoma caninum (natural protein)”, the stoichiometry N in experiment [1] and in experiment [2] was 2 throughout.
